# Assay results as given in article PMC2714985 (Journal of immunology (Baltimore, Md. : 1950), 2009).
# Molecular target: rat collagen type I (rat, UniProt P02454 152-1207; P02466 86-1125)
# Assay: SPR
# rat collagen type I, sequence (P02454 152-1207, chain 1 of 2): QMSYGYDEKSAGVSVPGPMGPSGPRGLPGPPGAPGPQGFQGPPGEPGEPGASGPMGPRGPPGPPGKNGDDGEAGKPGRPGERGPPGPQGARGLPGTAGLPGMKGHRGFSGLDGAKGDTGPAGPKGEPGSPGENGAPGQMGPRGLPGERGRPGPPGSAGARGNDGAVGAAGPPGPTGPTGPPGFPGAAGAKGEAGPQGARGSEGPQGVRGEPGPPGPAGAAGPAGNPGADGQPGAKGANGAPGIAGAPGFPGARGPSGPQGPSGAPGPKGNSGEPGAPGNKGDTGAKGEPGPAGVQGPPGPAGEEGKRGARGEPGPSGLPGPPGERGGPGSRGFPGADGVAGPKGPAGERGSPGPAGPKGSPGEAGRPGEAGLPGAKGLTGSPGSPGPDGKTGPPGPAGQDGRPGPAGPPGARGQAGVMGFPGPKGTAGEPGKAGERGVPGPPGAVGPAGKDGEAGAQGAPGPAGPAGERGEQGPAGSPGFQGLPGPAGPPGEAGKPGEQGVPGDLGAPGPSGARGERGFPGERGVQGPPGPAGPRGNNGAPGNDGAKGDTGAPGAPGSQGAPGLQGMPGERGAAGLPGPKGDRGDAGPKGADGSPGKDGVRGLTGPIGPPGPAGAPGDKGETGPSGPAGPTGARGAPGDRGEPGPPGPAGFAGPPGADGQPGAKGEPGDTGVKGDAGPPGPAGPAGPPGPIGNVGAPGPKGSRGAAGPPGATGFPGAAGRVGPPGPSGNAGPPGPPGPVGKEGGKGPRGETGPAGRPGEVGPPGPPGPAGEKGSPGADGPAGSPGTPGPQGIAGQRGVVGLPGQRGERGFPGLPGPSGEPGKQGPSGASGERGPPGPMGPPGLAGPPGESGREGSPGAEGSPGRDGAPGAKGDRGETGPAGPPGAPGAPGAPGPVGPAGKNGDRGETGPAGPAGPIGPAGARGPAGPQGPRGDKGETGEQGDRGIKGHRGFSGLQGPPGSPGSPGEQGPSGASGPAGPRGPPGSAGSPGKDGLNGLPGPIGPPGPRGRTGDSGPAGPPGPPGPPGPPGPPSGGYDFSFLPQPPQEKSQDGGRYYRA
# rat collagen type I, sequence (P02466 86-1125, chain 2 of 2): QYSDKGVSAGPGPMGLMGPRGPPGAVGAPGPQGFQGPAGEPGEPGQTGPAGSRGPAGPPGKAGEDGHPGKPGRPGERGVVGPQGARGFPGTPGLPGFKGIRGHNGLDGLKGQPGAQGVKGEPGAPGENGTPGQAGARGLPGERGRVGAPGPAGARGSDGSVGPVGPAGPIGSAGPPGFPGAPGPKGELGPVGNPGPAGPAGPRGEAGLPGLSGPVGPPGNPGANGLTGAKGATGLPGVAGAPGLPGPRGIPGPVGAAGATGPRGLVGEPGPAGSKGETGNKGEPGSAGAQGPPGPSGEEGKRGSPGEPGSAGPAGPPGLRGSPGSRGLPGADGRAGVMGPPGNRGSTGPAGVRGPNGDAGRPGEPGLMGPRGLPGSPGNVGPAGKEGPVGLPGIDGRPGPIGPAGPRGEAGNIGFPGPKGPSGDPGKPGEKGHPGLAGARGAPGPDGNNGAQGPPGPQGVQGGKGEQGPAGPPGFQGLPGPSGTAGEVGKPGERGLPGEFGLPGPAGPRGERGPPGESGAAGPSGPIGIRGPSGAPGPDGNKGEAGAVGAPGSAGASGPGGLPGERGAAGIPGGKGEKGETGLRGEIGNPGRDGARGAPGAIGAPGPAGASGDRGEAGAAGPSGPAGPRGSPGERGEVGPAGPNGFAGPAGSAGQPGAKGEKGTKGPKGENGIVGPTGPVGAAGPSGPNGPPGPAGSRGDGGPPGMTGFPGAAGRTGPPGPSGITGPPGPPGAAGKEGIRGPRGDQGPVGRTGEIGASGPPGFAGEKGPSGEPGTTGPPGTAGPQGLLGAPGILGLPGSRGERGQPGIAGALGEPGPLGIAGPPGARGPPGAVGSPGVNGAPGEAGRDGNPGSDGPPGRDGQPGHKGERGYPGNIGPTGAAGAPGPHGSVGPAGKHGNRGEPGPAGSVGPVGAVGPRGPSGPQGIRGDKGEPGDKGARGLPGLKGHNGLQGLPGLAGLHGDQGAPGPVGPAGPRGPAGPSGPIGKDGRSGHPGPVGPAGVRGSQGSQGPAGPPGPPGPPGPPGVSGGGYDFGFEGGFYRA
binder,measurement,value
"LAIR-1/Fc wt fusion protein (Fc fusion, human, UniProt Q6GTX8 22-165, looked up) QEEDLPRPSISAEPGTVIPLGSHVTFVCRGPVGVQTFRLERDSRSTYNDTEDVSQASPSESEARFRIDSVREGNAGLYRCIYYKPPKWSEQSDYLELLVKESSGGPDSPDTEPGSSAGPTQRPSDNSHNEHAPASQGLKAEHLY",Kd,0.145 µM
same,koff,0.0456 s⁻¹
